Measured values as given in article PMC5354205, “Structure and assembly of scalable porous protein cages” (Nature Communications, 2017).
Several values for one entry are separate records, joined by “and”; a condition that tells them apart may be missing. Identical values can stand only once. Values belong to the molecule of their own block, whether it stands above or below them.

Columns and labels:
[1] = target: AaLS-neg (lumazine synthase from Aquifex aeolicus with R83E, T86E, T120E, Q123E), C-terminal His6-tag (Aquifex aeolicus) (UniProt O66529); experiment: cryo-EM structure; single-particle reconstruction; 20 mM Tris-HCl pH 7.8, 0.2 M NaCl, 5 mM EDTA; monomer 80, 80 and 300 uM; Titan Krios 300 kV
[2] = target: lumazine synthase from Aquifex aeolicus, wild-type protein (AaLS-wt), C-terminal His6-tag (Aquifex aeolicus) (UniProt O66529); experiment: as above
[3] = target: lumazine synthase from Aquifex aeolicus, wild-type protein (AaLS-wt), C-terminal His6-tag (Aquifex aeolicus) (UniProt O66529); experiment: native MS; 5 uM monomer in 150 mM ammonium acetate, 25 mM triethylammonium acetate, pH 7.8; modified qTOF, nano-electrospray, positive ion mode; subunit copy number of the cage
[4] = target: the molecule itself; experiment: native MS; AaLS-neg pre-incubated in low ionic strength buffer: 10 mM ammonium acetate, pH 7.8; cage dissociated into smaller capsomers
[5] = target: the molecule itself; experiment: native MS; 5 uM monomer in 150 mM ammonium acetate, 25 mM triethylammonium acetate, pH 7.8; modified qTOF, nano-electrospray, positive ion mode; subunit copy number of the cage

B1: AaLS-neg lacking a His6-tag (pMG211_AaLS-neg_noHis) (other, Aquifex aeolicus, UniProt O66529 1-154, looked up)
chain: MEIYEGKLTAEGLRFGIVASRFNHALVDRLVEGAIDCIVRHGGREEDITLVRVPGSWEIPVAAGELARKEDIDAVIAIGVLIEGAEPHFDYIASEVSKGLANLSLELRKPITFGVITADELEEAIERAGTKHGNKGWEAALSAIEMANLFKSLR
notes: lumazine synthase, Aquifex aeolicus, with four lumenal residues mutated to glutamate; Made for native MS; 180-mer in 150 mM ammonium acetate; pentamers, 10-mers and 15-mers after low ionic strength; source: E. coli BL21-gold (DE3), purified (lysate heated at 85 °C, MonoQ anion exchange, SEC Sephacryl S-400); copies: 180
stoichiometry N [4]: 5 and 10 and 15
stoichiometry N [5]: 180

B2: AaLS-13 lacking a His6-tag (pMG211_AaLS-13_noHis) (other, Aquifex aeolicus, UniProt O66529 1-154, looked up)
chain: MEIYEGKLTAEGLRFGIVASRFNHALVGRLVEGAIDCIVRHGGREEDITLVCVPGSWEIPVAAGELARKEDIDAVIAIGVLIEGAEPHFDYIASEVSKGLANLSLELRKPISFGDITDDELEEAIECAGTEHGNKGWEAALSAIEMANLFKSLR
notes: lumazine synthase, Aquifex aeolicus, with the four mutations of AaLS-neg and seven more from directed evolution; Made for native MS; charge states not resolved, the copy number only estimated (240 to 420); source: E. coli BL21-gold (DE3), purified (ammonium sulphate, MonoQ anion exchange, SEC Sephacryl S-400; 3 mM DTT added)
stoichiometry N [5]: 240 to 420

The next lines start with results.

stoichiometry N [1]: 180
Molecule: AaLS-neg (lumazine synthase from Aquifex aeolicus with R83E, T86E, T120E, Q123E), C-terminal His6-tag (from UniProt O66529 1-154)

stoichiometry N [2]: 60
Molecule: lumazine synthase from Aquifex aeolicus, wild-type protein (AaLS-wt), C-terminal His6-tag (from UniProt O66529 1-154) (enzyme)
stoichiometry N [3]: 60
